Data as given in publication PMC4165587, “Comparison of the Structure and Function of Phospholamban and the Arginine-14 Deficient Mutant Associated with Dilated Cardiomyopathy” (PLoS ONE, 2014).

Target: the molecule itself
Test: SDS-PAGE; recombinant PLB in isolation, solubilised in LDS sample buffer; 4-12% Bolt Bis-Tris Plus gel, MES SDS running buffer; Coomassie stain

Protein	stoichiometry N
phospholamban with a deletion of arginine at position 14 (PLBR14Δ), full length, recombinant (natural protein, human, UniProt P26678 1-52, looked up, phospholamban, human, full length, non-acetylated, with the deletion of Arg14 that is associated with human dilated cardiomyopathy; Made from the human PLBWT DNA by site-directed ligase-independent mutagenesis; A synthetic full-length PLBR14Δ was also bought (Activotec), but the experiments written here name the recombinant protein; also called Rec R14Δ; PLBR14D; source: E. coli C41(DE3), MBP …) MEKVQYLTRSAIRASTIEMPQQARQKLQNLFINFCLILICLLLICIIVMLL	5
wild type phospholamban (PLBWT), full length, recombinant (natural protein, human, UniProt P26678 1-52, looked up, phospholamban, human, 52 amino acids, full length, non-acetylated; Untagged after TEV cleavage; also called Rec WT; source: E. coli C41(DE3), MBP fusion (pMAL c2X), purified on amylose, cleaved with TEV protease, chloroform/methanol extraction; not shown: MBP, N-terminal, cleaved) MEKVQYLTRSAIRRASTIEMPQQARQKLQNLFINFCLILICLLLICIIVMLL	5
